Laboratory results published in patent publication US20040087498A1, “Modified factor VII” (Novo Nordisk Health Care AG, priority 1991, published 2004).
“And” between values parts separate entries of the source, which are not always exact repeats. Equal values may be shown once.

Tests used:
[1] = test system: tissue factor (TF) and activated Factor VII (FVIIa) mediation of vascular lesion formation; assay: Vascular lesion formation after carotid endarterectomy in baboons; type: in vivo; conditions: baboon
Description: Measurements were performed for vascular lesion formation on day 30. The results in 5 treated animals were compared with the findings in 5 concurrent vehicle buffer-infused controls.
Under halothane anesthesia and sterile operating conditions, animals labeled with autologous ^111In-platelets received intravenous infusions of DEGR-FVIIa using the tether system for continuous intravenous administration (initial bolus injection of 1 mg/kg followed by continuous intravenous infusion of 50 μg/kg/hr. The animals received surgical carotid endarterectomy, bilateral brachial artery or bilateral femoral artery Fogarty balloon catheter angioplasties.
The DEGR-FVIIa was administered for 7 or 30 days by continuous infusions via venous catheter using the tether system. Thirty days after surgery the animals were anesthetized with halothane and underwent in situ pressure-perfusion fixation with 4% paraformaldehyde containing 0.1% glutaraldeyde for 30 min. […]
Carotid endarterectomy was performed through a midline neck incision using the technique of Hanson et al., Hypertension 18:I170-I-176 (1991) and Krupski et al., Circulation 84:1749-1757 (1991), incorporated herein by reference. […] The endarterectomy was then performed beginning 1 cm from the divided end of the everted vessel segment and continued for a measured distance of 1 cm. […]

[2] = ELISA for DEGR-FVIIa in rabbit plasma; type: in vivo; conditions: for FVIIa ELISA, DEGR-FVIIa in rabbit plasma, individual animals: listed as DEGR-FVIIa
Description: The test drug delivery for the animals consisted of an initial bolus injection immediately prior to balloon angioplasty, followed by a continuous systemic infusion by osmotic pump via the internal jugular vein. The duration of the drug infusion was 3 days. The control animals received heparin, 150 U/kg IV bolus, prior to balloon angioplasty followed by saline infusion. The DEGR-FVIIa treated animals received a 1 mg/kg bolus injection followed by 50 μg/kg/hr infusion.
Prothrombin time and concentration of DEGR-FVIIa in the blood were determined at immediately pre-bolus injection of the test compound, 1 hr post bolus injection, and at 3 days at the end of continuous infusion. One to two mls of citrated plasma was obtained and the prothrombin times and antigen levels determined.
An ELISA assay was used to determine the concentration of DEGR-FVIIa in plasma samples from the control and DEGR-FVIIa treated rabbits. The assay involved first diluting an anti-human FVII monoclonal antibody (Dr. W. Kisiel, U. of New Mexico) to 2.0 μg/ml in 0.1 M carbonate buffer pH 9.6, and adding 100 μl/well to 96-well plates. The plates were then incubated at 4° C. overnight and subsequently washed two times using wash buffer (PBS, pH 7.4, containing 0.05% Tween 20).
After blocking, a standard dilution series of DEGR-FVIIa ranging from 20-0.027 ng/ml was added, along with a dilution series of the test rabbit plasma (1:100 to 1:4000 in blocking buffer) applied at 100 μl/well. Non-immune rabbit plasma was used as a negative control. Plates were then incubated for 1 hr at 37° C. followed by four washes with wash buffer.
DEGR-FVIIa was detected by adding 100 μl/well of a 1:1,000 dilution of rabbit anti-human FVII polyclonal antibody (Dr. Kisiel, U. New Mexico) in blocking buffer. Plates were incubated for 1 hr at 37° C., followed by five washes with wash buffer. Specific antibody binding was detected using 100 μl/well of a 1:2,000 dilution of goat anti-rabbit IgG antibody-peroxidase conjugate (Tago, Inc.). Plates were incubated for 1 hr at 37° C. and washed six times with wash buffer. Finally, 100 μl of substrate solution was added (0.42 mg/ml of o-phenylenediamine dihydrochloride [OPD] in 0.2 M citrate buffer, pH 5.0, containing 0.3% H2O2). After 1-3 min at room temp. the color reaction was stopped by adding 100 μl/well of 1N H2SO4 and the plates were read at 490 nm on a Microplate spectrophotometer. The concentration of DEGR-FVIIa in the plasma samples was determined by comparing the A490 values of the unknown to those of the DEGR-FVIIa standard curve.

In the case of “DEGR-Factor VIIa: Recombinant human Factor VIIa with its active site derivatized by Dansyl-L-Glu-Gly-Arg-chloromethyl Ketone (DEGRck)”, the intimal area ([1]; treated for 30 days, examined at 30 days) is reported as “A similar result”, the intimal area ([1]; treated for seven days, studied at 30 days, versus control) is reported as “significantly decreased” and the “FVIIa ELISA, DEGR-FVIIa in rabbit plasma, individual animals” value (“FVIIa ELISA, DEGR-FVIIa in rabbit plasma” for short) ([2]; 1 hour after 1 mg/kg bolus, 50 μg/kg/hr infusion) is reported as 3,210 ng/ml and 4,950 ng/ml and 4,543 ng/ml and 4,900 ng/ml and 4,600 ng/ml and 2,145 ng/ml and 2,830 ng/ml. For the same substance, the “FVIIa ELISA, DEGR-FVIIa in rabbit plasma” value ([2]; 3 days, end of 50 μg/kg/hr infusion) was 102 ng/mL and 7 ng/mL and 661 ng/mL and 117 ng/mL and 502 ng/mL and 212 ng/mL and 228 ng/mL, the “FVIIa ELISA, DEGR-FVIIa in rabbit plasma” value ([2]; Pretreatment) was 0 ng/ml and 1 ng/ml and 13 ng/ml (2×) and 65 ng/ml and 4 ng/ml and 9 ng/ml and the “DEGR-FVIIa antigen level in the plasma” value ([2]; rabbit, 1 hr time point, range over animals) was 2 to 6 µg/mL.
